In patent US20220040290A1:

Target: stabilized CH505 TF ch.SOSIP trimer (E64K/A316W) (HIV-1)
Test: method not stated

## unmutated common ancestor (UCA) of the CH103 B cell lineage (antibody)
  Kd: 171 nM
